Results published in the supplement of paper PMC9112550, “Optimization of the antimicrobial peptide Bac7 by deep mutational scanning” (BMC Biology, 2022).

Test system: Escherichia coli TOP10
Experiment: shrunken log2 fold change of peptide-encoding DNA abundance (4.5 h post-induction vs induction); higher = less antimicrobial activity (less host growth inhibition)
Settings: time post-induction: 4.5 h; library: site-saturation at positions 5, 18, 19, 20
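Also: peptides expressed intracellularly from a pBAD plasmid library in pooled LB shake-flask culture, induced with 0.3% L-arabinose, DNA abundance read by NGS, three biological replicates, DESeq2 with apeglm shrinkage.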

Sequence | shrunken log2 fold change
RRIRNRPPRLPRPRPRPSKSPRP | -0.227
RRIRNRPPRLPRPRPRPSLGPRP | 0.0885
RRIRNRPPRLPRPRPRPSLTPRP | -0.266
RRIRNRPPRLPRPRPRPSMQPRP | -0.152
RRIRNRPPRLPRPRPRPSNKPRP | -0.259
RRIRNRPPRLPRPRPRPSQCPRP | -0.13
RRIRNRPPRLPRPRPRPSQDPRP | -0.102
RRIRNRPPRLPRPRPRPSQYPRP | -0.268
RRIRNRPPRLPRPRPRPSRPPRP | 0.112
RRIRNRPPRLPRPRPRPSSHPRP | -0.0939
RRIRNRPPRLPRPRPRPSTAPRP | -0.28
RRIRNRPPRLPRPRPRPSTFPRP | -0.276
RRIRNRPPRLPRPRPRPSTLPRP | -0.474
RRIRNRPPRLPRPRPRPSVAPRP | -0.0478
RRIRNRPPRLPRPRPRPSWMPRP | -0.487
RRIRNRPPRLPRPRPRPSWNPRP | -0.191
RRIRNRPPRLPRPRPRPSYIPRP | -0.637
RRIRNRPPRLPRPRPRPTADPRP | 0.422
RRIRNRPPRLPRPRPRPTAVPRP | 0.495
RRIRNRPPRLPRPRPRPTDLPRP | -0.228
RRIRNRPPRLPRPRPRPTDPPRP | 0.162
RRIRNRPPRLPRPRPRPTDYPRP | -0.409
RRIRNRPPRLPRPRPRPTGEPRP | 0.394
RRIRNRPPRLPRPRPRPTGVPRP | 0.147
RRIRNRPPRLPRPRPRPTGWPRP | 0.355

Sequence | shrunken log2 fold change
RRIRNRPPRLPRPRPRPTHVPRP | 0.216
RRIRNRPPRLPRPRPRPTILPRP | -0.742
RRIRNRPPRLPRPRPRPTKKPRP | 0.0702
RRIRNRPPRLPRPRPRPTKNPRP | -0.0348
RRIRNRPPRLPRPRPRPTMHPRP | -0.159
RRIRNRPPRLPRPRPRPTMIPRP | -0.387
RRIRNRPPRLPRPRPRPTNQPRP | -0.281
RRIRNRPPRLPRPRPRPTPRPRP | 0.677
RRIRNRPPRLPRPRPRPTQAPRP | 0.24
RRIRNRPPRLPRPRPRPTQKPRP | 0.241
RRIRNRPPRLPRPRPRPTRRPRP | 0.805
RRIRNRPPRLPRPRPRPTRYPRP | 0.217
RRIRNRPPRLPRPRPRPTSRPRP | -0.129
RRIRNRPPRLPRPRPRPTSSPRP | 0.211
RRIRNRPPRLPRPRPRPTTQPRP | -0.222
RRIRNRPPRLPRPRPRPTWGPRP | -0.00179
RRIRNRPPRLPRPRPRPTWKPRP | 0.0378
RRIRNRPPRLPRPRPRPTWQPRP | 0.0252
RRIRNRPPRLPRPRPRPTWSPRP | -0.352
RRIRNRPPRLPRPRPRPTWTPRP | 0.201
RRIRNRPPRLPRPRPRPTYDPRP | -0.396
RRIRNRPPRLPRPRPRPVAEPRP | 0.363
RRIRNRPPRLPRPRPRPVCEPRP | 1.34
RRIRNRPPRLPRPRPRPVDPPRP | 0.0584
RRIRNRPPRLPRPRPRPVDSPRP | -0.196

Sequence | shrunken log2 fold change
RRIRNRPPRLPRPRPRPVELPRP | -0.0081
RRIRNRPPRLPRPRPRPVFAPRP | -0.0312
RRIRNRPPRLPRPRPRPVFHPRP | -0.256
RRIRNRPPRLPRPRPRPVFIPRP | -0.459
RRIRNRPPRLPRPRPRPVHHPRP | -2.09
RRIRNRPPRLPRPRPRPVHIPRP | -0.15
RRIRNRPPRLPRPRPRPVHYPRP | -0.124
RRIRNRPPRLPRPRPRPVIKPRP | -0.375
RRIRNRPPRLPRPRPRPVKKPRP | -0.0236
RRIRNRPPRLPRPRPRPVKVPRP | -0.0708
RRIRNRPPRLPRPRPRPVMQPRP | -0.187
RRIRNRPPRLPRPRPRPVNRPRP | 0.00717
RRIRNRPPRLPRPRPRPVPEPRP | 0.61
RRIRNRPPRLPRPRPRPVQHPRP | -0.258
RRIRNRPPRLPRPRPRPVQNPRP | -0.0269
RRIRNRPPRLPRPRPRPVRNPRP | 0.178
RRIRNRPPRLPRPRPRPVTAPRP | -0.248
RRIRNRPPRLPRPRPRPVVKPRP | 0.0106
RRIRNRPPRLPRPRPRPVVTPRP | -0.114
RRIRNRPPRLPRPRPRPVWMPRP | -0.0917
RRIRNRPPRLPRPRPRPWAEPRP | 0.125
RRIRNRPPRLPRPRPRPWAQPRP | -0.0776
RRIRNRPPRLPRPRPRPWDCPRP | -0.118
RRIRNRPPRLPRPRPRPWEDPRP | -0.0966
RRIRNRPPRLPRPRPRPWHQPRP | -0.094

Sequence | shrunken log2 fold change
RRIRNRPPRLPRPRPRPWIHPRP | 0.0731
RRIRNRPPRLPRPRPRPWNKPRP | -0.184
RRIRNRPPRLPRPRPRPWNPPRP | -0.0102
RRIRNRPPRLPRPRPRPWNSPRP | -0.281
RRIRNRPPRLPRPRPRPWPKPRP | 0.0323
RRIRNRPPRLPRPRPRPWPSPRP | 0.0756
RRIRNRPPRLPRPRPRPWRCPRP | -0.0792
RRIRNRPPRLPRPRPRPWSYPRP | -0.0175
RRIRNRPPRLPRPRPRPWTAPRP | -0.0401
RRIRNRPPRLPRPRPRPWTCPRP | 0.0493
RRIRNRPPRLPRPRPRPWTWPRP | -0.0415
RRIRNRPPRLPRPRPRPWVDPRP | -0.00748
RRIRNRPPRLPRPRPRPYCMPRP | -0.776
RRIRNRPPRLPRPRPRPYCRPRP | -0.982
RRIRNRPPRLPRPRPRPYDFPRP | 0.0143
RRIRNRPPRLPRPRPRPYDHPRP | -0.219
RRIRNRPPRLPRPRPRPYDLPRP | -0.166
RRIRNRPPRLPRPRPRPYFHPRP | -0.474
RRIRNRPPRLPRPRPRPYFKPRP | -0.363
RRIRNRPPRLPRPRPRPYFMPRP | -1.09
RRIRNRPPRLPRPRPRPYGVPRP | -0.00804
RRIRNRPPRLPRPRPRPYHCPRP | -0.0116
RRIRNRPPRLPRPRPRPYINPRP | -0.801
RRIRNRPPRLPRPRPRPYITPRP | -0.292
RRIRNRPPRLPRPRPRPYIVPRP | -0.314

Sequence | shrunken log2 fold change
RRIRNRPPRLPRPRPRPYLLPRP | -0.27
RRIRNRPPRLPRPRPRPYMIPRP | 0.0323
RRIRNRPPRLPRPRPRPYNGPRP | 0.0167
RRIRNRPPRLPRPRPRPYPMPRP | 0.133
RRIRNRPPRLPRPRPRPYSSPRP | -0.027
RRIRNRPPRLPRPRPRPYTPPRP | -0.0563
RRIRNRPPRLPRPRPRPYTTPRP | -0.83
RRIRNRPPRLPRPRPRPYVTPRP | -0.553
RRIRNRPPRLPRPRPRPYWEPRP | -0.293
RRIRNRPPRLPRPRPRPYYWPRP | -0.367
RRIRPRPPRLPRPRPRPAAFPRP | 0.207
RRIRPRPPRLPRPRPRPACKPRP | 0.0686
RRIRPRPPRLPRPRPRPADRPRP | 0.408
RRIRPRPPRLPRPRPRPAFQPRP | 0.156
RRIRPRPPRLPRPRPRPAGEPRP | 0.418
RRIRPRPPRLPRPRPRPAHRPRP | 0.384
RRIRPRPPRLPRPRPRPAITPRP | -0.361
RRIRPRPPRLPRPRPRPALGPRP | 0.964
RRIRPRPPRLPRPRPRPALMPRP | 0.31
RRIRPRPPRLPRPRPRPALRPRP | 0.545
RRIRPRPPRLPRPRPRPAMVPRP | 0.844
RRIRPRPPRLPRPRPRPAPNPRP | 1.16
RRIRPRPPRLPRPRPRPAPRPRP | 0.992
RRIRPRPPRLPRPRPRPAPVPRP | 0.409
RRIRPRPPRLPRPRPRPAQEPRP | 0.171

Sequence | shrunken log2 fold change
RRIRPRPPRLPRPRPRPAQFPRP | 0.272
RRIRPRPPRLPRPRPRPAQGPRP | 0.156
RRIRPRPPRLPRPRPRPASEPRP | 0.0613
RRIRPRPPRLPRPRPRPATSPRP | 0.358
RRIRPRPPRLPRPRPRPAWEPRP | 0.216
RRIRPRPPRLPRPRPRPAWKPRP | -0.109
RRIRPRPPRLPRPRPRPAYKPRP | -0.302
RRIRPRPPRLPRPRPRPAYWPRP | 0.212
RRIRPRPPRLPRPRPRPCFNPRP | -0.512
RRIRPRPPRLPRPRPRPCGPPRP | 0.189
RRIRPRPPRLPRPRPRPCGRPRP | 0.302
RRIRPRPPRLPRPRPRPCHYPRP | -0.146
RRIRPRPPRLPRPRPRPCIAPRP | 0.00774
RRIRPRPPRLPRPRPRPCICPRP | -0.728
RRIRPRPPRLPRPRPRPCNLPRP | -0.593
RRIRPRPPRLPRPRPRPCNYPRP | -0.152
RRIRPRPPRLPRPRPRPCQDPRP | -0.006
RRIRPRPPRLPRPRPRPCQEPRP | -0.0635
RRIRPRPPRLPRPRPRPCRPPRP | -0.168
RRIRPRPPRLPRPRPRPCRTPRP | -0.194
RRIRPRPPRLPRPRPRPCRYPRP | 0.0858
RRIRPRPPRLPRPRPRPCSMPRP | -0.564
RRIRPRPPRLPRPRPRPCVIPRP | -0.222
RRIRPRPPRLPRPRPRPCWIPRP | -0.456
RRIRPRPPRLPRPRPRPCYTPRP | -0.531
